According to PMC6748616 (mAbs, 2019):
One block for each binder: values may come before it.

How the values were obtained:
Assay in all cases: SPR
[1] = biological target: IgV domain of human SIRPα v2 (Homo sapiens, SIRPα allele v2 …, strain)
[2] = biological target: T1, IgV domain of cynomolgus SIRPα (Macaca fascicularis, EHH65484.1 allele)
T1 chain: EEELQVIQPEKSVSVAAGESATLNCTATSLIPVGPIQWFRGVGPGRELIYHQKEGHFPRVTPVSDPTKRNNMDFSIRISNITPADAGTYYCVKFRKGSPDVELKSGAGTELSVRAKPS

[3] = biological target: IgV domain of human SIRPβ1 (Homo sapiens, SIRPβ1 NP_006056.2, UniProt O00241)
[4] = biological target: IgV domain of human SIRPγ (Homo sapiens, SIRPγ NP_061026.2, UniProt Q9P1W8)
[5] = biological target: IgV domain of human SIRPα v1 (Homo sapiens (Human)., UniProt P78324-1)
Sequence of IgV domain of human SIRPα v1 (P78324 31-149): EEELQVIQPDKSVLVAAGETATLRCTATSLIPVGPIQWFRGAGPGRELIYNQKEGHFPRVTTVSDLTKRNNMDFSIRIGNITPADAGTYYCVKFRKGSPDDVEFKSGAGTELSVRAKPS

[6] = biological target: IgV domain of mouse C57BL/6 SIRPα (Mus musculus, strain C57BL/6, UniProt P97797, strain)
[7] = biological target: T2, IgV domain of mouse NOD SIRPα (Mus musculus, strain NOD, strain)
T2 chain: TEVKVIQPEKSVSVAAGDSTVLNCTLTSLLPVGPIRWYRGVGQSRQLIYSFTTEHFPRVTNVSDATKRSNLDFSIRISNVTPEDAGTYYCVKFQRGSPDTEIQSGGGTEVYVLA

[8] = biological target: T3, IgV domain of mouse BALB/c SIRPα (Mus musculus, strain BALB/c, strain)
T3 chain: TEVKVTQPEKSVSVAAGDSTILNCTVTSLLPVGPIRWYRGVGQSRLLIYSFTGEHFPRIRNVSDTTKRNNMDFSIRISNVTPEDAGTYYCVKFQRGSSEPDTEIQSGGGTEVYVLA

B3: anti-SIRPα clone 218, scFv-Fc (scFv, V domains shown)
VH: DVQLVESGGGVVRPGESLTLSCTASGFTFTSSTMNWVRQAPGEGLDWVSSISTSGVITYYADSVKGRATISRDNSKNTLYLRLFSLRADDTAIYYCATDTFDHWGPGTLVTVSS
VL: ALTQPASVSANPGETVKITCFGSSGNYGWFQQKSPGSAPVTVIHYNNKRPSDIPSRFSGSKSGSTGTLTITGVRAEDEAVYFCGAWETGSATFGAGTTLTVL
Kd [1]: 0.276 nM
Kd [2]: 0.0599 nM
binding result [3]: binds
Kd [4]: 0.0636 nM
Kd [5]: 0.123 nM
binding result [6]: no binding (tested: 100 nM)

B4: anti-SIRPα antibody clone 136, full-length IgG1 (antibody, V domains shown)
VH: not shown
VL: ETVLTQSPGTLTLSPGERATLTCRASQSVYTYLAWYQEKPGQAPRLLIYGASSRATGIPDRFSGSGSGTEFTLTISSLQSEDFAVYYCQQYYDRPPLTFGGGTKVEIK
Kd [1]: 1.63 nM
Kd [7]: 0.554 nM
Kd [2]: 2.15 nM
Kd [3]: 4.35 nM
Kd [4]: 23.9 nM
Kd [5]: 0.458 nM
Kd [6]: 12.7 nM
Kd [8]: 0.35 nM

B5: anti-SIRPα antibody clone 3, full-length IgG1 (antibody, V domains shown)
VH: AVTLDESGGGLQTPGGALSLVCKASGFIFSDYGMNWVRQAPGKGLEFVAQITSGSRTYYGAAVKGRATISRDNRQSTVKLQLNNLRAEDTGIYFCARDFGSGVGSIDAWGNGTEVIVSS
VL: ALTQPASVSANLGGTVKITCSGSRGRYGWYQQRSPGSAPVTVIYRDNQRPSNIPSRFSSSTSGSTSTLTITGVQADDESVYFCGSYDGSIDIFGAGTTLTVL
Kd [1]: 0.0767 nM
Kd [7]: 1.63 nM
Kd [2]: 2.29 nM
Kd [3]: 1.63 nM
Kd [4]: 83.6 nM
Kd [5]: 0.162 nM
Kd [6]: 3.65 nM
Kd [8]: 1.16 nM

The remaining binders from weak to strong by Kd [1], led by results:

Kd [1]: 1.86 nM
Kd [2]: 2.41 nM
binding result [3]: binds
binding result [4]: binds
Kd [5]: 0.426 nM
binding result [6]: no binding (tested: 100 nM)
B1: anti-SIRPα antibody clone 115, full-length IgG1 (antibody, V domains shown)
VH: DVQLVESGGGVVRPGESLRLSCAASGFSFSSYAMNWVRQAPGEGLEWVSRINSGGGGTDYAESVKGRFTISRDNSENTLYLQMNSLRAEDTAVYYCAKQYDWNSFFDYWGLGALVTVSS
VL: ETVLTQSPATLSVSPGERATLSCRASQTVGSKLAWHQQKPGQAPRLLIYDATNRATGISDRFSGSGSGTDFTLTISSLQTEDSAVYYCQQYYYWPPYRFGGGTKVEIK

Kd [1]: 0.0682 nM
Kd [2]: 0.112 nM
Kd [3]: 0.342 nM
Kd [4]: 0.267 nM
Kd [5]: 0.183 nM
binding result [6]: no binding (tested: 100 nM)
B2: anti-SIRPα antibody clone 119, full-length IgG1 (antibody, V domains shown)
VH: DVQLLESGGGVVQPGGSLRLSCAASGFSFSNFAMTWVRQAPGEGLEWVSTIGSGDTYYADSVKGRFTISRDNSKNTLYLQMNSLRAEDTAVYYCAKDSTVSWSGDFFDYWGQGTLVTVSS
VL: EIVLTQSPATLSVSPGERATFSCRASQNVKNDLAWYQQRPGQAPRLLIYAARIRETGIPERFSGSGSGTEFTLTITSLQSEDFAVYYCQQYYDWPPFTFGGGTKVEIK
